Data taken from patent US12600782 (BIOTHEUS, dated 2026).
Where two headings read alike, the source gives them in different places.

T1: human PD-L2 protein (purchased from AcroBiosystems) (human, UniProt Q9BQ51 20-219, limits assumed, biotinylated in the blocking assays)
T1 construct: Bought soluble protein; also called PD-L2 antigen; biotinylated human PD-L2 protein
T1 sequence (looked up): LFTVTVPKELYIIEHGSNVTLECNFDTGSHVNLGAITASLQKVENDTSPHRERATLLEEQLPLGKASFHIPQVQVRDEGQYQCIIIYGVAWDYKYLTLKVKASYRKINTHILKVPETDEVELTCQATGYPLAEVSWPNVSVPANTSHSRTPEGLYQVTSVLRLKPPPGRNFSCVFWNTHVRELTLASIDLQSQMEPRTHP

T2: human PD-L2 on CHO cells (CHO-hPD-L2 cells) (human, UniProt Q9BQ51 20-273)
T2 construct: whole, on cells; also called CHO-K1-PD-L1/PD-L2
T2 sequence (looked up): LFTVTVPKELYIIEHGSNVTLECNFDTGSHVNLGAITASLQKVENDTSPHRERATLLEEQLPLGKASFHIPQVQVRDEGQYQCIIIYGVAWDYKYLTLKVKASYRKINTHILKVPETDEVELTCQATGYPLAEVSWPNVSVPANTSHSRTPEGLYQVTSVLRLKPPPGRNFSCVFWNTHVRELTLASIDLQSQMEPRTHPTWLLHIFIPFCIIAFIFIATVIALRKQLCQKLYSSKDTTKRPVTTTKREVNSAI


Legend:
[1] = biological target: T1, human PD-L2 protein (purchased from …); experiment: BLI (ForteBio), antibody on AHQ sensor, 100 nM PD-L2 antigen, 1:1 model
Method: (§1) ForteBio affinity determination was carried out according to existing methods (Estep, P et al., High throughput solution-based measurement of antibody-antigen affinity and epitope binning. MAbs, 2013.5(2): p. 270-8). In short, the sensor was equilibrated for 30 min under the line of the analysis buffer, and then the baseline was established after online detection for 60 s. The purified antibody obtained as described above was loaded onto the AhQ sensor online. […] Kinetic analysis was performed using a 1:1 binding model.

[2] = biological target: T2, human PD-L2 on CHO cells (CHO-hPD-L2 …); experiment: flow cytometry on CHO-hPD-L2 cells, PE anti-human IgG-Fc, median fluorescence intensity (MFI)
Method: The expanded CHO-hPD-L2 cells were adjusted to a cell density of 2×10⁶ cells/ml, and were added to 96-well flow plate at 100 μl/well, and centrifuged for later use. […] The diluted samples were added to the 96-well flow plate with cells at 100 μl/well, incubated at 4° C. for 30 min, and washed twice with PBS. Goat F(ab')2 anti-human IgG-Fc (PE) (purchased from Abcam) diluted 100 times with PBS was added at 100 μl/well, incubated at 4° C. for 30 min, and washed twice with PBS. PBS was added at 100 μl/well to resuspend cells, and detection was performed on a CytoFlex (Bechman) flow cytometer and the corresponding MFI was calculated.

[3] = biological target: T1, human PD-L2 protein (purchased from …); experiment: flow cytometry blocking assay: antibody pre-incubated with biotinylated human PD-L2 protein (1 ug/ml), binding of PD-L2 to CHO-hPD-1 cells read as MFI
Method: (§2) CHO cells overexpressing human PD-1 (CHO-hPD-1 cells) were generated by transfection of the pCHO1.0 vector (purchased from Invitrogen™) cloning human PD-1 cDNA (purchased from Sino Biological). The expanded CHO-hPD-1 cells were adjusted to a cell density of 2×10⁶ cells/ml, and were added to 96-well flow plate at 100 μl/well, and centrifuged for later use. The purified mutant sample was diluted with PBS and diluted 3 times from […] for 12 points. […] The co-incubation sample was added to the above-mentioned 96-well flow plate with cells 100 μl/well, incubated at 4° C. for 30 min, and washed twice with PBS. APC goat anti-mouse IgG (minimum×reactive) antibody diluted 100 times with PBS (purchased from Biolegend®) was added at 100 μl/well, incubated at 4° C. for 30 min, and washed twice with PBS. PBS was added at 100 μl/well to resuspend cells, and detection was performed on a CytoFlex (Bechman) flow cytometer and the corresponding MFI was calculated.

[4] = biological target: T1, human PD-L2 protein (purchased from …); experiment: BLI (ForteBio), antibody on AHQ sensor, 100 nM PD-L2 antigen, 1:1 model; remark: listed apart in the source
Method: as §1
The experimental method was the same as that in Example 1.5.

[5] = biological target: T1, human PD-L2 protein (purchased from …); experiment: flow cytometry blocking assay: antibody pre-incubated with biotinylated human PD-L2 protein (1 ug/ml), binding of PD-L2 to CHO-hPD-1 cells read as MFI (APC)
Method: as §2

[6] = biological target: T3, human PD-L1 protein (purchased from AcroBiosystems) (human, UniProt Q9NZQ7 19-238, biotinylated in the blocking assay); experiment: BLI (ForteBio), antibody on AHQ sensor, 100 nM PD-L1 antigen, 1:1 model
T3 construct: Bought soluble protein; also called PD-L1 antigen; biotinylated human PD-L1 protein
Method: as §1

T3 sequence (Q9NZQ7 19-238 limits assumed): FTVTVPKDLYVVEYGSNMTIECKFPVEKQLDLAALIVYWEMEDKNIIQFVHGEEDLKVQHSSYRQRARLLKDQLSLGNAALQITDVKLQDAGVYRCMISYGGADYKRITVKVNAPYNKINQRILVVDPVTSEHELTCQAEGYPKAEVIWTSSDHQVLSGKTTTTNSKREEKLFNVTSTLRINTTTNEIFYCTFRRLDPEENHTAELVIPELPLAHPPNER

| Kd [1] | koff [1] | kon [1] | IC50 (read off the curve) [3] | Binder | also measured |
| --- | --- | --- | --- | --- | --- |
| 4.51 nM | 0.000825 s⁻¹ | 183000 M⁻¹ s⁻¹ | ~2 nM | D-Ye-22 (antibody, V domains shown, Anti-PD-L2 heavy chain antibody: VHH linked to human IgG1 (LALA) Fc; the junction is not described) VH: QVQLQESGGGLVQAGDSLRLSCIGSRRTFTMAWFRQAPGKEREFVAGIWGPADHTIYANSVKGRFACSRDDSTNTIFLQMNSLELEDTALYLCAAADSSGDDFEYWGQGTQVTVSS | EC50 (read off the curve) [2]: ~20 nM |
| 3.4 nM | 0.000433 s⁻¹ | 127000 M⁻¹ s⁻¹ | – | D-Na-80 (antibody, V domains shown, Anti-PD-L2 heavy chain antibody: VHH linked to human IgG1 (LALA) Fc; the junction is not described) VH: EVQLVESGGGLVQAGGSLRLSCAVSGVSFINYAMGWFRQAPGKEREFVAAISRFGGTTSYADSVKDRFSITTDTKDTVYLQTNSLKPEDTAVYYCAANSRILSRTAKDYDYWGQGTQVTVSS | – |
| 0.655 nM | 0.000288 s⁻¹ | 440000 M⁻¹ s⁻¹ | ~30 nM | D-Na-87 (antibody, V domains shown, Anti-PD-L2 heavy chain antibody: VHH linked to human IgG1 (LALA) Fc; the junction is not described) VH: QVQLVESGGGLVQPGGSLRLSCAASGFAFDAYAMTWVRQAPGKGLEFLSRIYSHGSKIIYAGSVKGRFTIFRDNAKNTVYLQMNSLKPEDTAVYYCAAGPDNIPTTGEKYDFWGQGTQVTVSS | – |
| 5.22 nM | 0.00106 s⁻¹ | 203000 M⁻¹ s⁻¹ | ~4 nM | D-Ye-10 (antibody, V domains shown, Anti-PD-L2 heavy chain antibody: VHH linked to human IgG1 (LALA) Fc; the junction is not described) VH: QVQLQESGGGLVQAGASLRLSCASSGRTFSSMTIGWFRQTPGKEREFVAGIGWSTSKTVYKDSVKGRFTISTDNAKKTVYLQMNNLKPEDTAVYYCAEDSMNRGQFDYWGQGTQVTVSS | EC50 (read off the curve) [2]: ~50 nM |
| 3.79 nM | 0.00176 s⁻¹ | 463000 M⁻¹ s⁻¹ | – | D-Na-90 (antibody, V domains shown, Anti-PD-L2 heavy chain antibody: VHH linked to human IgG1 (LALA) Fc; the junction is not described) VH: QVQLVESGGGLVQAGGSLRLSCAASGLTFINYAMGWFRQAPGKEREFVAAISWAGGTTSYADSVKDRFSITRDSAKDTVYLQTNSLKPEDTAVYYCAANSRILSRTAKDYDYWGQGTQVTVSS | – |
| 0.486 nM | 0.000325 s⁻¹ | 668000 M⁻¹ s⁻¹ | ~9 nM | D-Na-58 (antibody, V domains shown, Anti-PD-L2 heavy chain antibody: VHH linked to human IgG1 (LALA) Fc; the junction is not described) VH: QVQLVESGGGLVQAGGSLTLSCTASGRTFSSYAMAWFRQAPGKERELLVTISRSGSTTYYLDSVKGRFTISRDNAKNTVYLQMNSLKPEDTAVYYCAAKRSLQDEVYYWGQGTQVTVSS | EC50 (read off the curve) [2]: ~50 nM |
| 3.58 nM | 0.000334 s⁻¹ | 93300 M⁻¹ s⁻¹ | – | D-Na-67 (antibody, V domains shown, Anti-PD-L2 heavy chain antibody: VHH linked to human IgG1 (LALA) Fc; the junction is not described) VH: QVQLVESGGGLVQAGGSLRLSCAASGGLTFINYAMGWFRQAPGKEREFVAAISRFGGTTSYADSVKDRFSITRDVAKDTVYLQTNSLKPEDTAVYYCAANSRILSRTAADYDYWGQGTQVTVSS | – |

Further lines, the binder ahead of its results:

| Binder | Kd [1] | koff [1] | kon [1] | IC50 (read off the curve) [3] | also measured |
| --- | --- | --- | --- | --- | --- |
| D-Ye-29 (antibody, V domains shown, Anti-PD-L2 heavy chain antibody: VHH linked to human IgG1 (LALA) Fc; the junction is not described) VH: QVQLQESGGGLVQPGGSLRLSCAASGSEFSFIPTGWYRQTPGKQRDLVAVFTSGGLTNYADSVKGRFTISRNNTKNIVYLQMNSLKPEDTAVYYCSGVPGPHYNGPTSGINYWGQGTQVTVSS | 1.93 nM | 0.000376 s⁻¹ | 195000 M⁻¹ s⁻¹ | – | Kd [4]: 1.93 nM; koff [4]: 0.000376 s⁻¹; kon [4]: 195000 M⁻¹ s⁻¹ |
| HZ-D-Ye-29-3 (antibody, V domains shown, Humanized anti-PD-L2 heavy chain antibody: VHH linked to human IgG1 (LALA) Fc; the junction is not described) VH: EVQLLESGGGLVQPGGSLRLSCAASGSEFSFIPTGWYRQAPGKQRELVAVFTSGGLTNYADSVKGRFTISRDNSKNTVYLQMNSLRAEDTAVYYCSGVPGPHYNGPTSGINYWGQGTQVTVSS | – | – | – | – | Kd [4]: 4.49 nM; koff [4]: 0.00173 s⁻¹; kon [4]: 386000 M⁻¹ s⁻¹ |
| HZ-D-Na-96-2 (antibody, V domains shown, Humanized anti-PD-L2 heavy chain antibody: VHH linked to human IgG1 (LALA) Fc; the junction is not described) VH: EVQLVESGGGLVQPGGSLRLSCAASGRTFSSMTIGWFRQAPGKGLEFVSGIGWTSGLTVYADSVKGRFTISRDNAKNSLYLQMNSLKPEDTAVYYCAADSMNRGQFDYWGQGTLVTVSS | – | – | – | – | Kd [4]: 1.58 nM; koff [4]: 0.000512 s⁻¹; kon [4]: 323000 M⁻¹ s⁻¹; IC50 (read off the curve) [5]: ~2 nM |
| D-Na-78 (antibody, V domains shown, Anti-PD-L2 heavy chain antibody: VHH linked to human IgG1 (LALA) Fc; the junction is not described) VH: QVQLVESGGGLVQAGGSLRLSCEASGVISINYAMAWFRQAPGKEREFVAAISRFGVTTSYADSVKDRFSIGITRDNAKDTMYLQTKSLKPEDTAVYYCAANSRILSRTAKDYDYWGQGTQVTVSS | 5.95 nM | 0.000345 s⁻¹ | 58100 M⁻¹ s⁻¹ | – | – |
| K-Yr-13&14-16 (antibody, V domains shown, Anti-PD-L1 heavy chain antibody: VHH linked to human IgG1 (LALA) Fc; the junction is not described) VH: EVQLVESGGGLVQAGGSLRLSCAASTRTFITYAMGWFRQAPGKEREFVASINWSGASTYYADSVKGRFTISRHNAKNTVYLQMNSLKPEDTAVYYCAAALSAVVVTQILDYDYWGQGTLVTVSS | – | – | – | – | Kd [6]: 11 nM; koff [6]: 0.00606 s⁻¹; kon [6]: 553000 M⁻¹ s⁻¹ |
| K-Yr-13&14-09 (antibody, V domains shown, Anti-PD-L1 heavy chain antibody: VHH linked to human IgG1 (LALA) Fc; the junction is not described) VH: QVQLVESGGGLVKAGDSLRLSCAASGRTFTIYAIGWFRQAPGKEREFVATINWSGSMTNYTDSVKGRFTISRDNAKNTVYLQMNSLKPDDTAIYYCAAYVGATISTAHSRYDYWGQGTLVTVSA | – | – | – | – | Kd [6]: 2.56 nM; koff [6]: 0.00137 s⁻¹; kon [6]: 535000 M⁻¹ s⁻¹ |
| D-Ye-31 (antibody, V domains shown, Anti-PD-L2 heavy chain antibody: VHH linked to human IgG1 (LALA) Fc; the junction is not described) VH: QVQLQESGGGLVQAGGSLGLSCAASGRTFSSMTIGWFRQTPGKEREFVAGIGWSTSKTVYKDSVKGRFTISTDNAKKTVYLQMNNLKPEDTAVYYCAADSMNRGQFDYWGQGTQVTVSS | 5.04 nM | 0.000644 s⁻¹ | 128000 M⁻¹ s⁻¹ | – | – |
| D-Na-64 (antibody, V domains shown, Anti-PD-L2 heavy chain antibody: VHH linked to human IgG1 (LALA) Fc; the junction is not described) VH: EVQLVESGGGLVQPGGSLRLSCAASGRTFSSMTIGWFRQTPGKEREFVAGIGWSTSKTVYKDSVKGRFTISTDNAKKTVYLQMNNLKPEDTAVYYCAADSMNRGQFDYWGQGTQVTVSS | 0.566 nM | 0.000369 s⁻¹ | 652000 M⁻¹ s⁻¹ | ~10 nM | EC50 (read off the curve) [2]: ~60 nM |
| D-Ye-32 (antibody, V domains shown, Anti-PD-L2 heavy chain antibody: VHH linked to human IgG1 (LALA) Fc; the junction is not described) VH: QVQLQESGGGLVQAGGSLRLSCAASGSVGSINAMAWFRQAPGKQRDVVAHMPSGGSTHYADSVKGRFTVSRDNAKNTVYLQMNSLKAEDTAVYYCWAAGLGWGQGTQVTVSS | 5.69 nM | 0.00146 s⁻¹ | 256000 M⁻¹ s⁻¹ | – | EC50 (read off the curve) [2]: ~70 nM |
| D-Na-89 (antibody, V domains shown, Anti-PD-L2 heavy chain antibody: VHH linked to human IgG1 (LALA) Fc; the junction is not described) VH: QVQLVESGGGLVQAGGSLRLSCAASGLTFINYAMGWFRQAPGKEREFVAAISWAGGTTSYADSVKDRFSITRDSAKDTVYLQTNSLKPEDTAVYYCAANSRILSRTAKDYDYWGQGTEVTVSS | 3.31 nM | 0.00112 s⁻¹ | 339000 M⁻¹ s⁻¹ | ~30 nM | – |
